# From IntAct's records for PubMed 17043237
# B1: Pre-B-cell leukemia transcription factor-interacting protein 1 (Homo sapiens), Q96AQ6-1 (parent)
# chain: MASCPDSDNSWVLAGSESLPVETLGPASRMDPESERALQAPHSPSKTDGKELAGTMDGEGTLFQTESPQSGSILTEETEVKGTLEGDVCGVEPPGPGDTVVQGDLQETTVVTGLGPDTQDLEGQSPPQSLPSTPKAAWIREEGRCSSSDDDTDVDMEGLRRRRGREAGPPQPMVPLAVENQAGGEGAGGELGISLNMCLLGALVLLGLGVLLFSGGLSESETGPMEEVERQVLPDPEVLEAVGDRQDGLREQLQAPVPPDSVPSLQNMGLLLDKLAKENQDIRLLQAQLQAQKEELQSLMHQPKGLEEENAQLRGALQQGEAFQRALESELQQLRARLQGLEADCVRGPDGVCLSGGRGPQGDKAIREQGPREQEPELSFLKQKEQLEAEAQALRQELERQRRLLGSVQQDLERSLQDASRGDPAHAGLAELGHRLAQKLQGLENWGQDPGVSANASKAWHQKSHFQNSREWSGKEKWWDGQRDRKAEHWKHKKEESGRERKKNWGGQEDREPAGRWKEGRPRVEESGSKKEGKRQGPKEPPRKSGSFHSSGEKQKQPRWREGTKDSHDPLPSWAELLRPKYRAPQGCSGVDECARQEGLTFFGTELAPVRQQELASLLRTYLARLPWAGQLTKELPLSPAFFGEDGIFRHDRLRFRDFVDALEDSLEEVAVQQTGDDDEVDDFEDFIFSHFFGDKALKKRSGKKDKHSQSPRAAGPREGHSHSHHHHHRG
# Variants of: B1
# Conditions: with esr1_human ESR1, P03372
# esr1_human ESR1, P03372, sequence (P03372 whole entry): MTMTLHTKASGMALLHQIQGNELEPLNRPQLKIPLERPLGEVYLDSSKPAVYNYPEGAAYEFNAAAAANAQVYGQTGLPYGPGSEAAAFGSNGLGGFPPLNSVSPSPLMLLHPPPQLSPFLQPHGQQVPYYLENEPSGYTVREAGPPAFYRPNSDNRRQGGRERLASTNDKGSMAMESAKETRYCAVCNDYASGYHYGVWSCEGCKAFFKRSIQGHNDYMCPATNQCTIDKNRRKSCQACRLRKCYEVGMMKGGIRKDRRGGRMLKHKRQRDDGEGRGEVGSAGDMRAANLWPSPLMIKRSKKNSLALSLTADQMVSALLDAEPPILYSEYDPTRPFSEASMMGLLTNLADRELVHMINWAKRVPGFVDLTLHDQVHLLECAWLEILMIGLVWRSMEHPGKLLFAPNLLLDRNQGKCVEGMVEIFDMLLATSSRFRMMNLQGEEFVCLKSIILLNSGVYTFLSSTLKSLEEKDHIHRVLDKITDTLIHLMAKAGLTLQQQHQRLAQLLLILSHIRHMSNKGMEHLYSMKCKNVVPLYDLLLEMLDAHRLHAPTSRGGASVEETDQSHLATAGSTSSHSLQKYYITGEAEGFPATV
row,Variant,effect of a mutation on the interaction
1,L615A;L618A;L619A,disrupting interaction strength
